This passage reports Km results from doi:10.1101/2021.07.08.451529v1.

Substrate in series [1]: O=C(O)CC(=O)C(=O)O
Kind of series: purified protein. To be noted: 100 μM NADH, 0.1 M phosphate pH 7.5, 0.1 M KCl, 24 °C.

Substrate in series [2]: NC(=O)C1=CN([C@@H]2O[C@H](COP(=O)(O)OP(=O)(O)OC[C@H]3O[C@@H](n4cnc5c(N)ncnc54)[C@H](O)[C@@H]3O)[C@@H](O)[C@H]2O)C=CC1
Kind of series: purified protein. To be noted: 150 μM oxaloacetate, 0.1 M phosphate pH 7.5, 0.1 M KCl, 24 °C.

B1: recombinant MDH-1 (Caenorhabditis elegans) (protein)
chain: MSAPLRVLVTGAAGQIGYSIVIRIADGTVFGKEQPVELVLLDVPQCSNILEGVVFELQDCALPTLFSVVAVTDEKSAFTGIDYAFLVGAMPRREGMERKDLLAANVKIFKSQGKALAEYAKPTTKVIVVGNPANTNAFIAAKYAAGKIPAKNFSAMTRLDHNRALAQLALKTGTTIGNVKNVIIWGNHSGTQFPDVTHATVNKNGTETDAYAAVGDNAFLQGPFIATVQKRGGVIIEKRKLSSAMSAAKAACDHIHDWHFGTKAGQFVSMAVPSDGSYGIPQGLIFSFPVTIEGGEWKIVQGLSFDDFAKGKIAATTKELEEERDDALKACDDANI
Usually Km stands for the concentration of substrate that gives half-maximal velocity. With B1, the Km is 54 ± 4 µM in “purified protein [1]” and 61 ± 6 µM in “purified protein [2]”.

B2: endogenous MDH-1 (Caenorhabditis elegans) (protein)
chain: B1 chain
In the case of B2, the Km in the series “purified protein [1]” came out at 50 ± 4 µM.

B3: recombinant MDH-2 (Caenorhabditis elegans) (protein)
chain: SQAPKVALLGAAGGIGQPLGLLLKQDPLVAHLALYDVVNTPGVAADLSHIDSNAKVTAHTGPKELYAAVENADVIVIPAGVPRKPGMTRDDLFNTNAGIVRDLAAVIAKASPKALIAIITNPVNSTVPIASEVLKKAGVYDPKRVFGVTTLDVVRSQAFVSELKGHDASKTVVPVVGGHAGITIIPLLSQVKPSTKFSEEEISKLTPRIQDAGTEVVNAKAGAGSATLSMALAGARFANALVRGIKGEKNVQCAYVASDAVKGVEYFSTPVELGPNGVEKILGVGKVSAYEQKLIDASVPELNKNIAKGVAFVKGN
Consider B3, for which the Km in the series “purified protein [1]” is 52 ± 4 µM.

B4: endogenous MDH-2 (Caenorhabditis elegans) (protein)
chain: B3 chain
Consider B4, for which, in the series “purified protein [1]”, the Km was 42 ± 2 µM.
